Assay [1] addresses T1, extracellular domain of human CD73 protein (CD73-ECD), C-terminus polyhistidine-tagged (human, UniProt P21589 27-547).
T1 construct: also called Human CD73-ECD; human recombinant CD73 enzyme (CD73 extracellular domain)
T1 sequence: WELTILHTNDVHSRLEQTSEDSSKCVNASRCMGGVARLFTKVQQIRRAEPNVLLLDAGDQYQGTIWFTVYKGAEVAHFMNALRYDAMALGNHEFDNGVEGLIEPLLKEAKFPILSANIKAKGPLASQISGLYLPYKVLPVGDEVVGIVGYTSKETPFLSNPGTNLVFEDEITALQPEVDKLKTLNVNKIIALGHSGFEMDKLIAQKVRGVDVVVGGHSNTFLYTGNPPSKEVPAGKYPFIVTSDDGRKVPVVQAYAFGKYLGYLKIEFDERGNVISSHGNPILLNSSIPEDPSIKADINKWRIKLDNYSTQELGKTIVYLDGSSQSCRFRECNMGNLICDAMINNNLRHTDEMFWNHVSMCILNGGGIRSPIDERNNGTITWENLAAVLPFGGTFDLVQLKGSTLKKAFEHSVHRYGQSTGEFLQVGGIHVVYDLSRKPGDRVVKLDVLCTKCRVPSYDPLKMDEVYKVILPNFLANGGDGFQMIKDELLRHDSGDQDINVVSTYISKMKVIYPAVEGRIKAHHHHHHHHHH
Kind of assay: ELISA, coated CD73-ECD.

Assay [2] concerns the target T2, CD73 on the surface of human tumor cells (human, UniProt P21589 27-549).
T2 construct: whole, on cells; One entry for endogenous CD73 on all cell lines; the cell line is named under assay or readout; also called CD73 receptors on the surface of tumor cells; tumor cell CD73
T2 sequence (looked up): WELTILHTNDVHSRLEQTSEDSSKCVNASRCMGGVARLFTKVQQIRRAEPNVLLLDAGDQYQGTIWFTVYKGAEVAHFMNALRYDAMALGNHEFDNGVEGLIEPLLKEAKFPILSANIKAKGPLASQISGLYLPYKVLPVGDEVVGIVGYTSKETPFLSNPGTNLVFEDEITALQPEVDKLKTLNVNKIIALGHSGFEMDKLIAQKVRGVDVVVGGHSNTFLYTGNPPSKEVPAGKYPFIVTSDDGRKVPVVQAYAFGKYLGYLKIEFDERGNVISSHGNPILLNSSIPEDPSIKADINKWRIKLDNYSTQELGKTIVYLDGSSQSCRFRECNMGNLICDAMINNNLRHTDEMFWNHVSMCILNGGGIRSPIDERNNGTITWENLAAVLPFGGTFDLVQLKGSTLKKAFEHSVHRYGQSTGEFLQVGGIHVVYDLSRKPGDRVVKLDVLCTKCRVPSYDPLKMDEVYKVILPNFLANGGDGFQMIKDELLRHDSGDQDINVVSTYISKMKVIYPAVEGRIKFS
Nature of the assay: flow cytometry, MDA-MB-231 cells. For orientation: In flow cytometry, cells or beads pass a laser one at a time.

The target of assay [3] is T1, extracellular domain of human CD73 …. Kind of assay: cell-based or functional assay.
Assay [4] concerns the target T2, CD73 on the surface of human tumor cells. Kind of assay: FACS, MDA-MB-231 cells.
For assay [5] the target is unchanged. Kind of assay: cell-based or functional assay.
The target is the same in assay [6]. Kind of assay: FACS, NCI-H1299 cells. How it is done: Alternatively, 100 μL of mAb001c, mAb002c, mAb004c diluted in a 3-fold gradient from 100 nM to 0.046 nM were used as primary antibodies and mixed with 1×10⁵ NCI-H1299 cells suspended in 100 μL RPMI-1640 serum-free medium. Then the obtained solutions were incubated at 4° C. for 1 h, the cells were washed twice with PBS to remove unbound primary antibody, and the target cells were incubated with 200 μL PE-labeled secondary antibody (2 μg/mL) at 4° C. for 30 min. The cells were washed twice with PBS to remove unbound secondary antibody. Finally, the cells were resuspended in 200 μL PBS, and the binding affinities of the test antibodies to CD73 on the cell surface were determined by a flow cytometer.
With reference to the methods in Examples 4-8, the ELISA affinity to CD73-ECD protein, the inhibitory activity on recombinant human CD73 enzyme, the binding affinity to tumor cells, and the inhibitory activity on CD73 enzyme of tumor cells of the above prepared MEDI9447-κ as well as the antibodies mAb001c and mAb002c were detected.

The target is the same in assay [7]. Nature of the assay: flow cytometry, NCI-H1299 cells.

Several values for one entry are separate records, joined by “and”; a condition that tells them apart may be missing. Equal values may be shown once.

B1: Hu001c-22 (antibody, V domains shown)
VH: QVQLVQSGAEVKKPGASVKVSCKASGYTFTNYYIYWVKQRPGQRLEWIGWIYPGNLNIKYNEKFKGRVTITADKSASTAYMELSSLRSEDTAVYYCARDDNYAWFAYWGQGTLVTVSS
VL: DIQMTQSPSSLSASVGDRVTITCKASQDVSTAVAWYQQKPGKAPKLLIYWTNTRHTGVPSRFSGSGSGTDHTLTISSLQPEDFATYYCQQHYSTPFTFGQGTKLEIK
notes: Humanized
On to B1, for which the binding result in assay [1] and in assay [2] was “binds” each time.

B2: Hu001c-23 (antibody, V domains shown)
VH: QVQLVQSGAEVKKPGASVKVSCKASGYTFTNYYIYWVKQRPGQGLEWIGWIYPGNLNIKYNEKFKGRVTITADKSASTAYMELSSLRSEDTAVYYCARDDNYAWFAYWGQGTLVTVSS
VL: DIQMTQSPSSLSASVGDRVTITCKASQDVSTAVAWYQQKPGKAPKLLIYWTNTRHTGVPSRFSGSGSGTDHTLTISSLQPEDFATYYCQQHYSTPFTFGQGTKLEIK
notes: Humanized
For the molecule B2, the binding result in assay [1] and in assay [2] was “binds” throughout.

B3: Hu001c-25 (antibody, V domains shown)
VH: QVQLVQSGAEVKKPGASVKVSCKASGYTFTNYYIYWVRQAPGQRLEWIGWIYPGNLNIKYNEKFKGRVTITADKSASTAYMELSSLRSEDTAVYYCARDDNYAWFAYWGQGTLVTVSS
VL: DIQMTQSPSSLSASVGDRVTITCKASQDVSTAVAWYQQKPGKSPKLLIYWTNTRHTGVPSRFSGSGSGTDHTLTISSLQPEDFATYYCQQHYSTPFTFGQGTKLEIK
notes: Humanized
Take B3: the binding result in assay [1] and in assay [2] was “binds” in each case.

B4: Hu001c-24 (antibody, V domains shown)
VH: QVQLVQSGAEVKKPGASVKVSCKTSGYTFTNYYIYWVKQRPGQGLEWIGWIYPGNLNIKYNEKFKGRVTITADKSASTAYMELSSLRSEDTAVYYCARDDNYAWFAYWGQGTLVTVSS
VL: DIQMTQSPSSLSASVGDRVTITCKASQDVSTAVAWYQQKPGKAPKLLIYWTNTRHTGVPSRFSGSGSGTDHTLTISSLQPEDFATYYCQQHYSTPFTFGQGTKLEIK
notes: Humanized
B4: the binding result in assay [1] and in assay [2] was “binds” throughout.

B5: mAb002c-VH-QG/VK-SG (antibody, V domains shown)
VH: QVQLQQPGAELVKPGASVRLSCKASGYTLTSYWMHWVKKRPGQGLEWIGEINPSQGRSNYNEKFKSKATLTVDRSSSTVYMQLGSLTSEDSAVYYCARRGVSGNYFDYWGQGTTLTVSS
VL: DIKMTQSPSSMYASLGERVTMTCKASQDINTYLSWFQQKPGKSPKTLIYRSNILVSGVPSRFSGSRSGQDYYLTITSLEYEDMGIYYCLQYDEFPYTFGGGTKLELK
In the case of B5, in assay [3], the “IC50, inhibition of the catalytic function of recombinant human CD73 (CellTiter-Glo)” value was 38 pM and 60 pM.

B6: mAb002c-VH-QG (antibody, V domains shown)
VH: QVQLQQPGAELVKPGASVRLSCKASGYTLTSYWMHWVKKRPGQGLEWIGEINPSQGRSNYNEKFKSKATLTVDRSSSTVYMQLGSLTSEDSAVYYCARRGVSGNYFDYWGQGTTLTVSS
VL: DIKMTQSPSSMYASLGERVTMTCKASQDINTYLSWFQQKPGKSPKTLIYRSNILVDGVPSRFSGSRSGQDYYLTITSLEYEDMGIYYCLQYDEFPYTFGGGTKLELK
Take B6: the response in assay [2] was half-maximal at 430 pM (EC50).

B7: mAb002c-VK-SG (antibody, V domains shown)
VH: QVQLQQPGAELVKPGASVRLSCKASGYTLTSYWMHWVKKRPGQGLEWIGEINPSNGRSNYNEKFKSKATLTVDRSSSTVYMQLGSLTSEDSAVYYCARRGVSGNYFDYWGQGTTLTVSS
VL: DIKMTQSPSSMYASLGERVTMTCKASQDINTYLSWFQQKPGKSPKTLIYRSNILVSGVPSRFSGSRSGQDYYLTITSLEYEDMGIYYCLQYDEFPYTFGGGTKLELK
Regarding B7, in assay [2], the 50% effective concentration (EC50) (as a rule, the concentration giving half of the maximal effect) amounted to 460 pM.

B8: mAb002c-VH-NA (antibody, V domains shown)
VH: QVQLQQPGAELVKPGASVRLSCKASGYTLTSYWMHWVKKRPGQGLEWIGEINPSNARSNYNEKFKSKATLTVDRSSSTVYMQLGSLTSEDSAVYYCARRGVSGNYFDYWGQGTTLTVSS
VL: DIKMTQSPSSMYASLGERVTMTCKASQDINTYLSWFQQKPGKSPKTLIYRSNILVDGVPSRFSGSRSGQDYYLTITSLEYEDMGIYYCLQYDEFPYTFGGGTKLELK
In the case of B8, the midpoint of the response in assay [2], the EC50, lay at 430 pM.

B9: MEDI9447-κ (antibody, V domains shown)
VH: EVQLLESGGGLVQPGGSLRLSCAASGFTFSSYAYSWVRQAPGKGLEWVSAISGSGGRTYYADSVKGRFTISRDNSKNTLYLQMNSLRAEDTAVYYCARLGYGRVDEWGRGTLVTVSS
VL: QSVLTQPPSASGTPGQRVTISCSGSLSNIGRNPVNWYQQLPGTAPKLLIYLDNLRLSGVPDRFSGSKSGTSASLAISGLQSEDEADYYCATWDDSHPGWTFGGGTKLTVL
In assay [4], B9 showed an EC50 of 752 pM. Moreover, in assay [5], the “Calu-1 CD73 Enzyme Inhibition IC50” value came out at 527 pM, the “MDA-MB-231 CD73 Enzyme Inhibition IC50” value is 1100 pM and the “NCI-H1299 CD73 Enzyme Inhibition IC50” value turned out to be 388 pM. Besides, in assay [6], the 50% effective concentration (EC50) amounted to 1270 pM.

B10: Hu002c-4 (antibody, V domains shown)
VH: QVQLVQSGAEVKKPGASVKVSCKASGYTLTSYWMHWVRQAPGQGLEWMGEINPSQGRSNYNEKFKSRVTMTRDTSTSTVYMELSSLRSEDTAVYYCARRGVSGNYFDYWGQGTLVTVSS
VL: DIQMTQSPSSLSASVGDRVTITCKASQDINTYLSWFQQKPGKSPKSLIYRSNILVSGVPSRFSGSGSGQDYTLTISSLQPEDFAIYYCLQYDEFPYTFGGGTKLEI
notes: Humanized
For B10, the binding result in assay [1] and in assay [7] was “binds” in each case.

B11: Hu002c-12 (antibody, V domains shown)
VH: QVQLVQSGAEVKKPGASVKVSCKASGYTLTSYWMHWVRQAPGQGLEWIGEINPSQGRSNYNEKFKSKVTLTVDRSTSTVYMELSSLRSEDTAVYYCARRGVSGNYFDYWGQGTLVTVSS
VL: DIQMTQSPSSLSASVGDRVTITCKASQDINTYLSWFQQKPGKSPKSLIYRSNILVSGVPSRFSGSGSGQDYTLTISSLQPEDFAIYYCLQYDEFPYTFGGGTKLEI
notes: Humanized
B11: the binding result in assay [1] and in assay [7] was “binds” each time.

B12: Hu002c-16 (antibody, V domains shown)
VH: QVQLVQSGAEVKKPGASVKVSCKASGYTLTSYWMHWVKKAPGQGLEWIGEINPSQGRSNYNEKFKSKVTLTVDRSTSTVYMELSSLRSEDTAVYYCARRGVSGNYFDYWGQGTLVTVSS
VL: DIQMTQSPSSLSASVGDRVTITCKASQDINTYLSWFQQKPGKSPKSLIYRSNILVSGVPSRFSGSGSGQDYTLTISSLQPEDFAIYYCLQYDEFPYTFGGGTKLEI
notes: Humanized
Turning to B12, the binding result in assay [1] and in assay [7] was “binds” each time.

B13: mAb001c-VK-SGS (antibody, V domains shown)
VH: QVQLQQSGPELVKPGASVRISCKTSGYTFTNYYIYWVKQRPGQGLEWIGWIYPGNLNIKYNEKFKGKSTLTADKSSSTAFMQLSSLTSEDSAVYFCARDDNYAWFAYWGQGTLVTVSS
VL: DIVMTQSHKFMSTSIGDRVSITCKASQDVSTAVAWYQQKPGQSPKLLIYWTNTRHTGVPDRFTGSGSGTEHTLTISSVQAEDLALYYCQQHYSTPFTFGSGTTLEIK
For the molecule B13, in assay [2], the 50% effective concentration (EC50) worked out at 1390 pM. Besides, the “IC50, inhibition of the catalytic function of recombinant human CD73 (CellTiter-Glo)” value in assay [3] was 20 pM.

The record behind these values is patent US20210024646A1 (FUDAN UNIVERSITY, published 2021).
